experiment: yeast display, Sf9 membrane polyspecificity reagent, FACS + sequencing; frameworks hold sequencing errors
How it was run: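 After 36–48 hours of galactose induction, yeast (Saccharomyces cerevisiae BJ5465) displaying a synthetic nanobody library were stained at 4 °C for 1 hour with 10% biotinylated, detergent-solubilized Sf9 membrane reagent. Streptavidin microbeads enriched the stained cells before FACS sorting into low and high (top ~1%) gates on anti-HA and streptavidin fluorescence. Each clone's polyreactivity label reflects its gate of origin.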

Sequence | polyreactivity (PSR sort gate)
QVQLQERGGGLVQAGGSLCLTCEASGTIFYDGDMGLYRQAPGKEREFVAAINPGGSAYYADSVKGRLPLAAITHTVYLQMFSLKPEDTAVYYCAAEQITGWSRVWVSWYDYWGQGTQVTVSS | low polyreactivity
QVQLQERGGGLVQAGGSLRLSCAASGIIYADGFMGLYRQAPGKELEFVANITGGGTSNYADSVKGGFTISRDNAKNTVYLQMNSLKPEDTAVYFCAVYFAWTIGFTYWGQGTQVTVSS | high polyreactivity
QVQLQERGGGLVQVGGSQRLSCAASGNIFYNYAMGWYRHAQGKEREFDATINHGTSINYADSVKGRFTISRDNAKNSVYLQMNSLKPEDTAVYYCAADLSWTDNLFYWGQGTQVTVSS | low polyreactivity
QVQLQERGGGLVQVRGSLRLSCAASGTIIIYGFMGWNRQAPGKERELVASINLGGITNYADSVTGRFTISRDNAKNTVYRQMISLKPEDNAVYYCAAYVVTGQNYGYWCQGTQVTVSS | low polyreactivity
QVQLQERGGGQVQAGGSLRLSCAASGTIFLYAFMGWYRQAPGKERELVAAIDVGTTTNYADSVKGRFTISRDNAKNTVYLQMNSLKPEDTAVYYCAANLGYLDDLGYWGQGTQVTVSS | low polyreactivity
QVQLQESAGGLVKAGGSLRLSCAASGNISNHNDMRWYRQAPGKEREFVAGITAGGNTNYADSVKGRFTISRDNAKNTVYLQMNSLKPEDTAVYYCAAYPDYAKSYGYWGQGTQATVSS | low polyreactivity
QVQLQESAGGLVQAGGSLRLRCSASGYISCDASMGWYRQAPGKERELAASITQGSSTNYADSVKGRFTIRDNAKNTVYLQMNSLKPEDTAVCYCAVTYPYWGDYTYWGQGTQVTVSS | low polyreactivity
QVQLQESAGGLVQAGGSLRLSCAASGTISTDSYMGWYRQAPGKERKFVATIGYGGITYYADSVKGRSTISRDSAKNTVYLQMNSLKPEDTAVYYCAVNSYYPDHYWYWGRGTQVTVSS | high polyreactivity
QVQLQESAGGLVQAGGSLRMSCAASGTIFSEANMGWYRQAPGKERELVATIGQGSTTNYADSVKGRFTISRDNAKNTVYLQMNSLKPEETAVYYCAVVTVDPVGFVYWGQGTQVTVSS | low polyreactivity
QVQLQESCGGLVQAGGSLRLSCAASGSIFDGFNMGWYRQAPGKEREFVAAISYGASTYYADSVKGRFTVSRDNAKNSVYLQMNSLKPEDTAVYYCAVYDELYHVLVYWGRGTQVTVSS | low polyreactivity
QVQLQESGAGLVQAGGRLRLSCASSGTITVLYKMGWFRQAPGKEREFVASINYGTSTYYADSVKGRFTVSRDSATNHEYLQMISLKPEDTAVYYCAAAYRWQDVYRYWGQGSQVTVSS | low polyreactivity
QVQLQESGAGLVQAGGSLRLCCAASGSIFYVYGMGWYRQAPGKERELVAGINAGTNTNYADSVRGRFTISRDNAKNTVHLQMNSLKPEDTAVYYCAADGNGYQAHEYWGQGTQVTVSS | high polyreactivity
QVQLQESGDGLVQAVGSLRLSCAASGYISGYNYMGWYRQAPGKERELVAGIDAFGSSTNYADCVKGRFTISRDNAKNTVYLQMNSPKPEDTAVYYCAAEYDDWDYLWYWGQGTQVTVSS | low polyreactivity
QVQLQESGDGLVQAVGSLRLSCAASGYISGYYYMGWYRQAPGKERELVAGIEAFGSSTNYADCVKGRFTISRDNAKNTVYLQMNSPKPEDTAVYYCAAEYDDWDYHWYWGQGTQVTVSS | low polyreactivity
QVQLQESGGCLVQAGGSLRLSCAASGPISRRSTMGWYSQAPGKERELVTAITRGTNTNYADSVKGRFTISRDNAKNTEYLQMNSLKTEDTAVYYCAAYGVLKPSRGDAVFHRYWGQGTQVTVSS | low polyreactivity
QVQLQESGGCLVQAGGSLRLSCAASGTNSDSGLMGWYRQAPGKERELVAGISSGGITTYADSVKGRFTISRDNAKNTVYLQMNSLKPEDTAVYWGQGTQVTVSC | low polyreactivity
QVQLQESGGGLEQAGGSLRLSCAATGTIFTDRFMGWYRQAPGKERELVAGISPGTSSNSADSVKGRFTISRDNAKNTVYLQMNSLKPEDTAVYYCAADWSTGNTLPYWGQGTQVTVSS | high polyreactivity
QVQLQESGGGLEQEGGSLRLSCAASGNISPPADMGWYRQAAGKERELVASIGTGGTTNYADSVKGRFNISRDNAKNTVYLQMNSLKPDDTSVYYCAAVRYEYNPYDYLGQGTQVTVSS | low polyreactivity
QVQLQESGGGLGQAGRSLRHSFAASGNIFDAGIMGWYRQAPGEERELVACITDGGSTNYADSVKRRFTISRDNAKNTVYLQMNSQKPEDTAVYYCAASWDTIGLFAYWGQGTQVTVSS | high polyreactivity
QVQLQESGGGLMQAGGNLRLSCAASGYISTHYDMDWYRQAPGKERELVARIDDGAITNYADSVKGRFTISRDNAKNTVYLQMNSLKPEDTAVYYCAVSSGDDYYHDYWGQGTQVTVSS | low polyreactivity
QVQLQESGGGLVHAGGSLRLSCAASGTISFINMMGWYRQAPGRERELVASINFGANTNYADSVKGRFTISRDNAKNTVYLQMNSLKPEDTAVYYCAVYDFDAYTLYYWGQGTLVTVSS | high polyreactivity
QVQLQESGGGLVHAGGSLRLSCAASVTISFINMMGWYRQAPGRERELDASINFGANTNYADSVKGRFTISRDNAKNSVYLQMNSLKPEDTAVYYCAVYDFDAYTLYYWGQGTLVTVSS | high polyreactivity

Sequence | polyreactivity (PSR sort gate)
QVQLQESGGGLVLAGGSLRLSCAESGYISWSFTMGWYRKAPGKEREFVAGITYGGITYYADSVKGRFTISRDNAKNTVYLQMNSLKPEDTAVYYCAAPQTYPYVYVYWGQGTQVTVSS | high polyreactivity
QVQLQESGGGLVLAGGSLRLSCSASGNISVYGSMGWYRQAPGKEREFVATIDPGTNTNYADSVKDRFTISRDNAKNTVYLQMNSLKPEDTAVYYGAVEAGSDWPYPYWGQGTQVTVSS | low polyreactivity
QVQLQESGGGLVLAGGSLRLSCSASGNISVYGSMGWYRQAPGKEREFVATIDPGTNTNYADSVKDRFTISRDNAKNTVYLQMNSLKPVDTAVYFCAVEAGSDWPYRYWGQGTQVTVSS | low polyreactivity
QVQLQESGGGLVLAGGSLRLSCSASGNISVYGSMGWYRQAPGKEREFVATIDPGTNTNYADSVKDRFTISRDNAKNTVYLQMNTRKPEDTAVYYCAVEAGSDWPYRYWGQGTEVTVSS | low polyreactivity
QVQLQESGGGLVLAGGSLRLSSAATGSISAQAYMGWDRQAPGKEREHVAGINYGDNTNYADSVKGRFTISRDNEHSVSADEQPESGRYRCVLLRGFLELFYYYIYWGQGTQVTVSS | high polyreactivity
QVQLQESGGGLVQADGSLRLSCAASGSMFGYYYMGWYRQAPGKDRELVATIHICGITNYADSVKGRFTISRDNAKNTVYLQMNSLKPDDTAVYYCAADEYAQRDLGYWGQGTQVTVSS | low polyreactivity
QVQLQESGGGLVQAGCSLRLSCAASGTISVHASMGWYRQAPGKERELVAGITDGANTYYADSVKGRFTISRDNSKNTVYLQMNSLKPEDTAVYYCAAYYGTEVHFTYWGQGTQVTVSS | low polyreactivity
QVQLQESGGGLVQAGGCLRLSCAASGTIFDPDYMVWYHQAPGKERELVASISLGRMTYYADSVKGRFTINRDNAKNTVYVQMNTLKPEDTAVYYCAVRVETIYYYSYWGQGTQVTVSS | high polyreactivity
QVQLQESGGGLVQAGGCLRLSCAASGTISTAYQMGWYRQAPGKEREFVAAIGYGAITNYADSVKGRFTISRDNAKNTVYLQMNSLKPEDTAVYYCAARRYVAGRGAYDYWGQGTQVTLSS | low polyreactivity
QVQLQESGGGLVQAGGCLSCTASGTIFGQGDMGWYRQAPGKERELVATINDGASTYYADSVKGRFTISRDKAKNTVYLQKNSLKPDDTAVYYCAVCTDITTYFGYWGQGTQVTVSS | low polyreactivity
QVQLQESGGGLVQAGGDLRLSCAASGKILRDYIMGWYRQASGKEREFVAGIDRGANTNYADSVKGRLTISRDNAKKTVYLQMNSLKPEDTAVYYCAVHTAIVPDFIYWGQGTQVTVSS | low polyreactivity
QVQLQESGGGLVQAGGDLRLSCAASGNIFLDYIMGWYRQAPGKEREFVAGIDRGANTNYADSVKGRFTISRDNAKNTLYLQMNSLKPEDTAVYYCAVHTAIVPDFIYWGQGTEVTVSS | low polyreactivity
QVQLQESGGGLVQAGGDLRLSCAASGNIFRDYIMGWYRQAPGKELEFVAGIDRGANTNYADSVKGRFTISRDNAKNTVYLQMNSLKPEDTAVYYCAVHTAIVPDFIYWGQGTQVTVSS | low polyreactivity
QVQLQESGGGLVQAGGDLRLSCAASGNIFRDYIMGWYRQAPGKEREFVAGIDRGANTNYADSVKGRFTISRDNAKNTVYLQMNSLKPEDTAVYYCAVHTAIVPDFIYWGQGSQVTVSS | low polyreactivity
QVQLQESGGGLVQAGGDLRLSCAASGNIFRDYIMGWYRQAPRKEREFVAGIDRGANTNYADSVKGRFTISRDNAKNTVYLLLNSLKPEDTAVYYCAVHTAIVPDFIYWGQGTQVTVSS | low polyreactivity
QVQLQESGGGLVQAGGILRLSCAACGNIFPSAVMGWYRQALAKEREFVATINSGSNTYYADSVKGRFTISRDNAKNTVYLQMNSLKLEDTAVYYCAAYFKLQAWHTYWGQGTQVTVSS | low polyreactivity
QVQLQESGGGLVQAGGILRLSCAASGTISDRAGMGWYREAPAKNAIGATIDRGTNTNYADSVKGRFTISRDNAKNTVYLQMNSLKREDTAVYNCAADGRYYIYLDYWGQGTQVTVSS | low polyreactivity
QVQLQESGGGLVQAGGRLRLSCAASGYISTFSSEMGWYRQAPGKERELVASIAPGCTTSYADSVKGRFTISRDYAKNTEFLQMNSLKPEDTAVYYCAVDYTVPASFGYWGQGSQVTVSS | high polyreactivity
QVQLQESGGGLVQAGGSLCLSCAASGTIFFDGDMGWYRQAPCKEREFVAAINPGGSAYYADSVKGRLPLAAITHTVYLQMNSLKPEDTAVYYCAAKLFDVYGYYYWGQGTHVTVSS | low polyreactivity
QVQLQESGGGLVQAGGSLCMSCAASGSISDYIFMGWYRQAPGKEREFVAGIGIGGNTNYADSVKGRFTISRDNAKNTVYLQMNSLKPEDTAVYYCAANATYTDYYAYWGQGTKVTVSS | low polyreactivity
QVQLQESGGGLVQAGGSLCMSCAASGSISDYIFMGWYRQAPGKEREFVAGIGIGGNTNYADSVKGRFTISRDNAKNTVYLQMNSLKPEDTAVYYCAANATYTDYYAYWGQGTQVTVSS | low polyreactivity
QVQLQESGGGLVQAGGSLGCAASGNISTRSEMGWYRQAPGKEREFVATINSGGITNYADSVKGRFTISRDNAKNTVYLRMNSLKPEDTAVYYRAVYGDFSDPYDYWGQGTQVTVSS | low polyreactivity

Reference: the nanobody polyreactivity screen of Harvey et al. (2022)
